The assay deals with actin of the acto-HMM complexes in Example II. The experiment in a line: stopped-flow; effects of ADP on ATP-mediated dissociation of acto-HMM.

In turn, “HMM from pig β cardiac myosin heavy chain (from UniProt P79293 1-1282) (enzyme)” registered a maximum rate constant for dissociation of acto-HMM (ATP-mediated, with ADP) of 35 s⁻¹.
The substance “rat α cardiac myosin HMM (chymotryptic heavy meromyosin of native hyperthyroid rat ventricular α-myosin) (from UniProt P02563 1-1285) (enzyme)” registered a maximum rate constant for dissociation of acto-HMM (ATP-mediated, with ADP) of 600 s⁻¹.
As to “HMM from rat β cardiac myosin heavy chain (hypothyroid rat) (from UniProt P02564 1-1282) (enzyme)”, the maximum rate constant for dissociation of acto-HMM (ATP-mediated, with ADP) came to 140 s⁻¹.
